From patent US20070036810A1, “Cyclic amp response element activator proteins and uses related thereto” (priority 2003, published 2007)

Columns and labels:
[1] = tested on: GAL4-CREB fusion protein; assay: GAL4-CREB activation assay in HLR cell line; type: cell-based; conditions: HLR cell line with integrated pFR-Luc reporter, normalized to pCMV-BD vector
Method: To determine if CREAP proteins can directly activate CREB1 protein, the expression constructs of CREAP1, CREAP2 and CREAP3 were transfected individually or with GAL4-CREB plasmid (Stratagene) into HLR cell line (Stratagene) carrying genomic DNA integrated copies of pFR-Luc reporter. Briefly, HLR cells were maintained per manufacturer's instructions. Selected plasmids and either empty vector (pCMV-BD) or GAL4-CREB plasmid were transfected at 75 ng/well using Fugene6 transfection reagent (Roche) as described above. As a positive control pFC-PKA an expression construct encoding catalytic subunit of protein kinase A (Stratagene) was also co-trasfected with GAL4-CREB. Fold of activation was compared to the reporter's activity measured in the cells transfected with empty vector.
The ability of full length CREAP1, CREAP2 and CREAP3 to induce the activity of GAL4-CREB fusion protein (Stratagene) was tested. The data presented are normalized to the value seen with pCMV-BD vector. […] Note the fold induction obtained with positive control is lower when compared to the data from Table 6 when all the plasmids including the reporter were transiently transfected.

[2] = tested on: Interleukin-8 promoter; assay: IL-8 promoter luciferase reporter co-transfection assay with the CREAP gene family; type: cell-based, human; conditions: cotransfection, relative to empty pCMV-SPORT6 vector
Description: (§1) The entire amino acid sequence for CREAP1 was used in a BLASTP search of a public NCBI database. Initially two public domain cDNAs (XM—117201 and FLJ00364) were identified that have significant homology to the CREAP1 coding region. The nucleotide sequence of XM—117201 was used in a BLASTN search (Altschul S. F. et al., Nucleic Acids Res. 25:3389-3402 (1997)) of a proprietary cDNA library EST database and 4 clones were identified that represent XM—117201 public sequence. All 4 clones were functionally tested upon co-transfection with the CRE-Luc and IL-8p-Luc reporters initially found to be induced by CREAP using methods similar to those disclosed above. Briefly, trypsinized HeLa cells are resuspended in complete growth media at 6×10^4 cells/ml and distributed into white 96-well plates (Costar) in the volume of 100 μl per well. Cells are left overnight in a tissue culture incubator at 37° C. and 5% CO2. pGL3B-IL-8p-Luc reporter plasmid or CRE-Luc reporter (BD Biosciences) as well as tested cDNAs are resuspended in OptiMEM I low serum media (GIBCO BRL) at 25 ng/ml. The reporter plasmids and cDNAs are then distributed into 96-well clean PCR plates (ABGene) at 4 μl/well and 3 μl/well respectively. […]
The activity of firefly and Renilla luciferase is measured using the DualGlo Luciferase Assay System (Promega) following the protocol supplied by the manufacturer. Briefly, 115 μl of freshly reconstituted luciferase reagent is added to each well of the 96-well tissue culture plates with a Multidrop 384 and, after 15 minutes incubation, luminescence is read on a LUMINOSKAN Ascent Luminometer (Thermo Labsystems) with a 400 msec integration time. Subsequently, 115 μl of Stop-and-Glo reagent is added to each well of the 96-well tissue culture and, after 15 minutes incubation, luminescence is read on a LUMINOSKAN Ascent Luminometer with a 200 msec integration time. The activity of each tested cDNA is measured as a ratio of the corresponding firefly and Renilla luciferase activities. […]

[3] = tested on: CRE-like element of IL-8 promoter (pCREL-Luc); assay: pCREL-Luc reporter (concatamerized CRE-like site) assay; type: cell-based; conditions: minimal promoter carrying concatamerized CRE-like site; data not shown
Description: The pIL-8Luc reporter was constructed by insertion of the −1491 to +43 region of the human IL-8 gene into pGL3Basic vector (Promega, Inc). PCR was used to generate a wild type minimal IL-8 promoter as well as point mutants. Mutations in AP-1, C/EBP, NF-κB were as described by Wu et al. (Wu et al. J. Biol. Chem., 272:2396-2403 (1997)). The sequence of a putative CRE-like site TGACATAA was mutated to TCGATCAA. Promoter constructs carrying 6 concatamerised copies of CRE-like response element (pCREL-Luc) or 5 copies of CRE-like element TGACACAA found in human PEPCK and CAPL promoters (pCREL2-Luc) were prepared by ligating PCR amplified sequences into pTAL-Luc (BD Biosciences). All techniques were performed using conventional methods.
In order to determine if the “CRE-like element” was directly responsive to CREAP1 or MAP3K11, the ability of both genes to activate a minimal promoter carrying concatamerized CRE-like site (pCREL-Luc) was examined. In addition, we studied the effect of PMA known inducer of AP-1.

[4] = tested on: minimal promoter linked to multiple copies of CRE; assay: CRE-Luc reporter co-transfection assay with the CREAP gene family; type: cell-based; conditions: cotransfection, relative to empty pCMV-SPORT6 vector
Description: as §1, with “respectively. Mixture containing Fugene 6 reagent (Roche Applied Bioscience) at 1.5 μl per transfection and pRL-SV40 (Promega) plasmid 20 ng per transfection is added in the volume of 10 μl per well of the 96-well PCR plate containing prediluted cDNAs.” for “respectively.”
The activity of firefly and Renilla luciferase is measured using the DualGlo Luciferase Assay System (Promega) following the protocol supplied by the manufacturer. Briefly, 115 μl of freshly reconstituted luciferase reagent is added to each well of the 96-well tissue culture plates with a Multidrop 384 and, after 15 minutes incubation, luminescence is read on a LUMINOSKAN Ascent Luminometer (Thermo Labsystems) with a 400 msec integration time. Subsequently, 115 μl of Stop-and-Glo reagent is added to each well of the 96-well tissue culture and, after 15 minutes incubation, luminescence is read on a LUMINOSKAN Ascent Luminometer with a 200 msec integration time. The activity of each tested cDNA is measured as a ratio of the corresponding firefly and Renilla luciferase activities.
To investigate this, the ability of CREAP2 and CREAP3 to activate gene expression driven by the IL-8 promoter and a CRE-dependent promoter was tested in co-transfection assays as disclosed above. Briefly, the levels of expression of a luciferase reporter driven by either the IL-8 promoter or a minimal promoter linked to 4 copies of CRE were determined after cotransfection with either an empty pCMV-SPORT6 expression vector or with the same vector carrying a cDNA for CREAP1, CREAP2 or CREAP3. […]

B1: CREAP1: human CRE activating protein 1, 650 amino acids, SEQ ID NO 2; expressed from pCMVSPORT-CREAP1 (protein)
chain: MATSNNPRKFSEKIALHNQKQAEETAAFEEVMKDLSLTRAARLQLQKSQYLQLGPSRGQYYGGSLPNVNQIGSGTMDLPFQPSGFLGEALAAAPVSLTPFQSSGLDTSRTTRHHGLVDRVYRERGRLGSPHRRPLSVDKHGRQADSCPYGTMYLSPPADTSWRRTNSDSALHQSTMTPTQPESFSSGSQDVHQKRVLLLTVPGMEETTSEADKNLSKQAWDTKKTGSRPKSCEVPGINIFPSADQENTTALIPATHNTGGSLPDLTNIHFPSPLPTPLDPEEPTFPALSSSSSTGNLAANLTHLGIGGAGQGMSTPGSSPQHRPAGVSPLSLSTEARRQQASPTLSPLSPITQAVAMDALSLEQQLPYAFFTQAGSQQPPPQPQPPPPPPPASQQPPPPPPPQAPVRLPPGGPLLPSASLTRGPQPPPLAVTVPSSLPQSPPENPGQPSMGIDIASAPALQQYRTSAGSPANQSPTSPVSNQGFSPGSSPQHTSTLGSVFGDAYYEQQMAARQANALSHQLEQFNMMENAISSSSLYSPGSTLNYSQAAMMGLTGSHGSLPDSQQLGYASHSGIPNIILTVTGESPPSLSKELTSSLAGVGDVSFDSDSQFPLDELKIDPLTLDGLHMLNDPDMVLADPATEDTFRMDRL
modifications: human
**Q.** For B1, which “Fold Induction” value [1] is on record?
**A.** Its value is 6.122.

**Q.** And the “IL-8: level of expression of luciferase relative to empty vector” value [2]?
**A.** The value was 175.8571.

**Q.** And the “activation of pCREL-Luc” value [3]?
**A.** Its value is “strongly activated”.

**Q.** What about the “CRE: level of expression of luciferase relative to empty vector” value [4] of the same molecule?
**A.** Its value is 28.6.
